From publication PMC2716403 (2009) come the findings set out here.

B1: Nup153 ZnF region (protein)
chain: AGSSWQCDTCLLQNKVTDNKCIACQAAKLPLKETAKQTGIGTPSKSDKPASTSGTGFGDKFKPAIGTWDCDTCLVQNKPEAVKCVACETPKPGTGVKRALPLTVASESPVTASSSTTVTTGTLGFGDKFKRPVGSWECPVCCVSNKAEDSRCVSCTSEKPGLVSASSSNSVPVSLPSGGCLGLDKFKKPEGSWDCEVCLVQNKADSTKCIACESAKPGTKSEFKGFGT
modifications: GDP-bound Ran
B2: Nup153 ZnF region (protein)
chain: AGSSWQCDTCLLQNKVTDNKCIACQAAKLPLKETAKQTGIGTPSKSDKPASTSGTGFGDKFKPAIGTWDCDTCLVQNKPEAVKCVACETPKPGTGVKRALPLTVASESPVTASSSTTVTTGTLGFGDKFKRPVGSWECPVCCVSNKAEDSRCVSCTSEKPGLVSASSSNSVPVSLPSGGCLGLDKFKKPEGSWDCEVCLVQNKADSTKCIACESAKPGTKSEFKGFGT

The target in this assay is Ran (Homo sapiens, UniProt P62826). The assay is described as follows: ITC. Background: In ITC the heat of successive injections is recorded.
As for VGSWECPVCCVSNKAEDSRCVSCTSEKPG (GDP-bound Ran) [Nup153 ZnF3 ZnF3], the Kd (usually the constant that tells how readily two partners part at equilibrium) was 6.6 µM.

AGSSWQCDTCLLQNKVTDNKCIACQAAKL (GDP-bound Ran) [Nup153 ZnF1 ZnF1]: binding was put at a Kd of 6.5 µM.

In the case of B1, the affinity, expressed as Kd, was 1 µM.

On to B2, for which binding was put at a Kd of 20 µM.
